# In publication PMC8752837, “Structural basis of BAK activation in mitochondrial apoptosis initiation” (Nature Communications, 2022):
# Numbering of substitutions follows the chain as printed. Names may count otherwise.
# B1: I81R (3): BAK missense mutant (protein, UniProt Q16611 2-211, looked up, variant I81R)
# Bcl-2 homologous …: ASGQGPGPPRQECGEPALPSASEEQVAQDTEEVFRSYVFYRHQQEQEAEGVAAPADPEMVTLPLQPSSTMGQVGRQLAIRGDDINRRYDSEFQTMLQHLQPTAENAYEYFTKIATSLFESGINWGRVVALLGFGYRLALHVYQHGLTGFLGQVTRFVVDFMLHHCIARWIAQRGGWVAALNLGNGPILNVLVVLGVVLLGQFVVRRFFKS
# B2: WT BAK: C-terminus truncated recombinant human BAK with C-terminal 6× histidine tag (protein, UniProt Q16611 2-211, looked up)
# Bcl-2 homologous …: B1 Bcl-2 homologous … with R80I
# What was measured:
# [1] = tested on: BAK; assay: Dye-based thermal shift assay (SYPRO Orange); assay type: physicochemical, human; details: rebuttal
# Method: To control for effect of mutations on protein stability, which may confound interpretation of impairment in BAK autoactivation, we measured the Tm of BAK WT and mutants (Supplementary Fig. 3f).
# (§1) We carried out TSA in 20 µL reactions in 384-well PCR plate (Cat# AB1384, Thermo Fisher Scientific) in 20 mM HEPES pH 7.0, 150 mM NaCl, 2 mM DTT), SYPRO ^TM Orange (5×) and 0.25 mg/mL purified BAK. To remove air bubbles we sealed assay plates with MicroAmp Optical Adhesive, incubated them for 2–5 min, and centrifuged them (1000 × rpm). We subjected the assay plates to 25–99 °C thermal gradient with 1°/minute increment and recorded fluorescence using Applied Biosystems Quant Studio 5. We performed three experiments in quadruplicate for each sample. We performed data processing and visualization in RISE, and final data analysis in Excel and GraphPad Prism. We also carried out dye-free TSA using capillary-based Prometheus NT.48 Nano Differential Scanning Fluorimetry (Nanotemper) in the same buffer conditions with 15 μM BAK. Melting temperature (Tm) values were obtained from the first derivative of melting scans.
# [2] = tested on: BCL2allKO HCT116 cells reconstituted with Dox-inducible mC-BAK; assay: Dox-induced cell death by IncuCyte imaging of SYTOX Green uptake (autoactivation); assay type: cell-based, human; details: for AUC (48 hr) of SYTOX Green counts/confluence: mC-BAK BCL2allKO HCT116 + Dox + qVD, average, N = 3
# Description: For mammalian cell culture experiments, we cloned the full length human BAK cDNA into pCR 2.1 TOPO vector, mutated BAK as needed, and PCR amplified the BAK gene for cloning into the BamHI and NotI sites of pRETROX mCherry vector for retroviral transduction. Amplification and mutagenesis primers are included in Supplementary Table 4. To test direct BAK activation and BAK autoactivation in cells, we produced cells stably expressing mCherry-human BAK (mC-BAK) ± human BID (BID) on a genetic background devoid of the entire BCL-2 family repertoire (all 17 BCL-2 genes), BCL2allKO HCT116, as described by the Xu Luo laboratory. We expressed WT and mutant mC-BAK using the doxycycline (Dox)-based inducible Tet-On 3G retroviral system from the pRetroX-TRE3G-Puro^R in BCL2allKO HCT116 cells expressing the Tet3G from pRetroX-Tet3G-Blast^R. We selected cells with puromycin (2.5 µg/mL) and blasticidin (2 µg/mL) starting at 2 days after retroviral transduction. To enrich for populations of cells that express mC-BAK, we treated cells with low Dox dose (25 ng/mL) and fluorescence-activated cell sorted (FACS) the mCherry positive cells. We performed the enrichment twice before cell death analysis. One caveat of our cellular system is tagging BAK with N-terminal mCherry, which may affect folding efficiency, degradation, and BAK interactome.
# (§2) We seeded cells in 24-well (100,000 cells/well), 96-well (15,000 cells/well), or 384-well (10,000 cells/well) plates coated with 10 µg/mL fibronectin. After ≥24 h of attachment and recovery, we induced cell death with Dox (up to 1000 ng/mL) and monitored SYTOX Green (25 nM) uptake by Incucyte imaging. This dye marks cells with compromised plasma membrane integrity. mC-BAK expressed before 24 h, which coincided with detectable cell death. We monitored Incucyte imaging for up to 48 h, followed by endpoint FACS analysis to measure the extent of cell death based on SYTOX Green positive cells on FACSCalibur systems (BD Biosciences). As expected, cells with low mCherry fluorescence were refractory to cell death.
# [3] = tested on: BCL2allKO HCT116 cells reconstituted with mC-BAK; assay: Endpoint FACS analysis of SYTOX Green positive cells; assay type: cell-based, human; details: average, N = 3
# Method: as §2
# [4] = Liposome permeabilization by WT and mutant BAK proteins (autoactivation, or direct activation by BID BH3); assay type: biochemical; details: no BH3 peptide; liposomes with […] DGS-NTA(Ni); Fig. 1a
# Method: Human BAK-∆TM-His6 (BAK)[26] spontaneously permeabilizes liposomes above a certain dose (>100 nM, Fig. 1a). In these dye-release assays[43]–[46], BAK is recruited via His-tag to liposomes containing 2.5 µM of the lipid 1,2-dioleoyl-sn-glycero-3-[(N-(5-amino-1-carboxypentyl)iminodiacetic acid)succinyl] (nickel salt), DGS-NTA(Ni).
# To probe autoactivation with full-length BAK, we mutated hydrophobic residues at positions (0)−(6) of the BH3 to alanine or arginine, and D83, which forms the conserved salt bridge (s) with R127, to alanine (Fig. 2a). The BH3 residues participate in autoactivation from the ligand side [hydrophobic positions (0)–(5) and D83(s)] and also from the receptor groove side [hydrophobic positions (3)–(5)] (Fig. 2a). Thus, substitutions at positions (3)–(5) should affect receptor and ligand activities and are predicted to impact BAK activation more severely than mutations of positions (0)–(2), which affect only ligand activity. […] In contrast, almost all (2)–(5) and (s) missense mutants were considerably impaired in autoactivation (Fig. 2b and Supplementary Fig. 3a). […] Despite impairment in autoactivation, all missense mutants were directly activated by BID BH3 peptide, although they induced lower level of permeabilization compared to WT BAK (Fig. 2b and Supplementary Fig. 3a).
# We performed liposome permeabilization assays as previously described[43]–[46]. […] (nickel salt) [DGS NTA(Ni), 2.5 μM final concentration in each assay] (Avanti Polar Lipids). We prepared 12.5 mM fluorophore; 8-aminonaphthalene-1, 3, 6-trisulfonic acid, disodium salt (ANTS) and 45 mM quencher; p-xylene-bis-pyridiniumbromide (DPX) in LUV buffer (10 mM HEPES pH 6.8, 200 mM KCl and 5 mM MgCl2). We mixed the lipid film in ANTS/DPX solution by vortexing and sonication (~15 min) followed by extrusion through polycarbonate membrane of 2 μm pore size (Avanti Polar lipids) to generate homogenous large unilamellar vesicles (LUVs). We separated LUVs from free ANTS/DPX by S500 size exclusion chromatography and stored them at 4 °C in the dark. We prepared peptide and protein dilutions in 96-well black flat bottom plates (Costar) kept on ice. ANTS release from permeabilized liposomes causes an increase in fluorescence, which we monitored at 37 °C for 90 min using a CLARIOSTAR microplate reader (BMG Labtech) set at excitation and emission wavelengths of 360 and 530 nm, respectively. We normalized the data relative to maximum and minimum fluorescence induced by 3% CHAPS and buffer controls, respectively. We quantified liposome permabilization by integrating area under curve (AUC) of normalized traces based on the Simpson’s equation, and analyzed that data in Excel and GraphPad Prism. AUC measurements reflect the kinetic and extent of liposome permeabilization and provide quantitative means for comparison between different experimental conditions (e.g., BAK mutants with gross or partial variation in activity). Variability in permeabilization of different liposomes is common and our analyses compare among conditions investigated with the same liposomes. Although the absolute permeabilization values may differ, the trends for the same conditions are always very similar between different liposomes.
# [5] = tested on: BAK; assay: Dye-free nano Differential Scanning Fluorimetry thermal shift assay; assay type: physicochemical, human; details: without DTT; mean of N = 3; Suppl. Fig. 7h
# Method: Through rational design and structural analysis, we expand the list of activated BAK complexes, supporting requisite BH3 ligand-induced destabilization of helix α1 (see below).
# as §1
Molecule,difference in Tm compared to WT [1] [°C],Dox-induced cell death ([2]; IncuCyte SYTOX Green up to 48 h),AUC (48 hr) of SYTOX Green counts/confluence ([2]; Dox 100 ng/mL),AUC (48 hr) of SYTOX Green counts/confluence ([2]; Dox 1000 ng/mL),flow cytometry SYTOX Green counts/confluence (48 hr) ([3]; Dox 100 ng/mL),flow cytometry SYTOX Green counts/confluence (48 hr) ([3]; Dox 1000 ng/mL),BAK dose above which liposomes are spontaneously permeabilized [4] [nM],"Melting temperature for 3 exps, Mean [5] [°C]"
B1,< 2,inactive irrespective of Dox dose,331.061,348.847,2.517,4.75,,
B2,,,,,,,> 100,77
